Experimental data as given in the Immune Epitope Database (IEDB).

Tests used:
HLA-B*08:01 [1] = assay: IEDB peptide-MHC binding, purified MHC/competitive/fluorescence; filed as Kd, often an IC50 or EC50 that approximates it; ≥ and ≤ were set here for values at or beyond the usual limits of such assays
HLA-B*15:01 [2] = assay: IEDB peptide-MHC binding, purified MHC/direct/fluorescence; filed as Kd, often an IC50 or EC50 that approximates it; ≥ and ≤ were set here for values at or beyond the usual limits of such assays
HLA-A*03:01 [3] = assay: as above
HLA-A*69:01 [4] = assay: as above
HLA-A*01:01 = assay: as above
HLA-B*58:01 [5] = assay: as above
HLA-B*35:01 [6] = assay: as above
HLA-A*31:01 = assay: as above
HLA-A*11:01 = assay: as above
HLA-B*08:01 [7] = assay: as above
HLA-A*26:01 [8] = assay: as above
HLA-B*07:02 = assay: as above
HLA-A*02:01 [9] = assay: as above
HLA-B*27:05 = assay: as above
HLA-B*44:02 = assay: as above
HLA-B*40:01 = assay: as above
HLA-A*02:16 [10] = assay: IEDB peptide-MHC binding, purified MHC/competitive/fluorescence; filed as Kd, often an IC50 or EC50 that approximates it; ≥ and ≤ were set here for values at or beyond the usual limits of such assays
HLA-A*02:01 [11] = assay: as above
HLA-A*24:03 = assay: IEDB peptide-MHC binding, purified MHC/direct/fluorescence; filed as Kd, often an IC50 or EC50 that approximates it; ≥ and ≤ were set here for values at or beyond the usual limits of such assays
HLA-A*30:01 = assay: as above
HLA-B*15:01 [12] = assay: IEDB peptide-MHC binding, purified MHC/competitive/fluorescence; filed as Kd, often an IC50 or EC50 that approximates it; ≥ and ≤ were set here for values at or beyond the usual limits of such assays
HLA-B*57:01 = assay: as above; details: source organism: Salmonella enterica subsp. enterica serovar Typhi
HLA-A*02:12 [13] = assay: as above; details: source organism: Salmonella enterica subsp. enterica serovar Typhi
HLA-A*03:01 [14] = assay: as above; details: source organism: Salmonella enterica subsp. enterica serovar Typhi
HLA-B*39:01 = assay: as above; details: source organism: Salmonella enterica subsp. enterica serovar Typhi
HLA-B*18:01 = assay: as above; details: source organism: Salmonella enterica subsp. enterica serovar Typhi
HLA-A*02:03 = assay: as above; details: source organism: Salmonella enterica subsp. enterica serovar Typhi
HLA-A*69:01 [15] = assay: as above; details: source organism: Salmonella enterica subsp. enterica serovar Typhi
HLA-B*51:01 = assay: as above; details: source organism: Salmonella enterica subsp. enterica serovar Typhi
HLA-A*02:19 = assay: as above; details: source organism: Salmonella enterica subsp. enterica serovar Typhi
HLA-B*27:03 = assay: as above; details: source organism: Salmonella enterica subsp. enterica serovar Typhi
HLA-A*26:01 [16] = assay: as above; details: source organism: Salmonella enterica subsp. enterica serovar Typhi
HLA-A*02:11 = assay: as above; details: source organism: Salmonella enterica subsp. enterica serovar Typhi
HLA-B*46:01 = assay: as above; details: source organism: Salmonella enterica subsp. enterica serovar Typhi
HLA-A*68:02 = assay: as above; details: source organism: Salmonella enterica subsp. enterica serovar Typhi
HLA-A*02:50 = assay: as above
HLA-A*02:12 [17] = assay: IEDB peptide-MHC binding, purified MHC/direct/fluorescence; filed as Kd, often an IC50 or EC50 that approximates it; ≥ and ≤ were set here for values at or beyond the usual limits of such assays; details: source organism: Vibrio vulnificus CMCP6
HLA-C*05:01 = assay: as above
HLA-A*02:16 [18] = assay: as above; details: source organism: Vibrio vulnificus CMCP6
HLA-B*58:01 [19] = assay: IEDB peptide-MHC binding, purified MHC/competitive/fluorescence; filed as Kd, often an IC50 or EC50 that approximates it; ≥ and ≤ were set here for values at or beyond the usual limits of such assays; details: source organism: Escherichia coli O139:H28 str. E24377A
HLA-B*35:01 [20] = assay: as above; details: source organism: Escherichia coli O139:H28 str. E24377A
HLA-C*03:03 = assay: IEDB peptide-MHC binding, purified MHC/direct/fluorescence; filed as Kd, often an IC50 or EC50 that approximates it; ≥ and ≤ were set here for values at or beyond the usual limits of such assays; details: source organism: Escherichia coli O139:H28 str. E24377A
[21] = source organism: Escherichia coli O139:H28 str. E24377A
[22] = source organism: Vibrio cholerae
[23] = source organism: Francisella tularensis subsp. holarctica OSU18
[24] = source organism: Salmonella enterica subsp. enterica serovar Typhi
[25] = source organism: Serratia marcescens
[26] = source organism: Vibrio vulnificus YJ016
[27] = source organism: Vibrio vulnificus
[28] = source organism: Coxiella burnetii

Measured: Kd

DLLKPNYAL
4.02 µM: HLA-B*08:01 [1]; [21]

EIFPNIKIY
0.164 µM: HLA-B*35:01 [6]; [22]
0.465 µM: HLA-B*15:01 [2]; [22]
0.0738 µM: HLA-A*26:01 [8]; [22]
≥ 20 µM: HLA-A*03:01 [3]; [22] | HLA-A*69:01 [4]; [22] | HLA-A*01:01; [22] | HLA-B*58:01 [5]; [22] | HLA-A*31:01; [22] | HLA-A*11:01; [22] | HLA-B*08:01 [7]; [22] | HLA-B*07:02; [22] | HLA-A*02:01 [9]; [22] | HLA-B*27:05; [22] | HLA-B*44:02; [22] | HLA-B*40:01; [22]

FGLLPEHYV
0.12 µM: HLA-A*02:01 [11]; [23]
0.0601 µM: HLA-A*02:16 [10]; [23]

FPRSAERAG
≥ 10 µM: HLA-A*30:01; [22]
≥ 20 µM: HLA-B*15:01 [2]; [22] | HLA-A*03:01 [3]; [22] | HLA-A*69:01 [4]; [22] | HLA-A*01:01; [22] | HLA-B*58:01 [5]; [22] | HLA-A*31:01; [22] | HLA-A*11:01; [22] | HLA-B*08:01 [7]; [22] | HLA-A*24:03; [22] | HLA-A*26:01 [8]; [22] | HLA-A*02:01 [9]; [22] | HLA-B*27:05; [22] | HLA-B*44:02; [22] | HLA-B*40:01; [22]
0.201 µM: HLA-B*07:02; [22]
0.0434 µM: HLA-B*35:01 [6]; [22]

KTVRYWHRF
≥ 20 µM: HLA-B*15:01 [12]; [24] | HLA-A*02:12 [13] | HLA-A*03:01 [14] | HLA-B*39:01 | HLA-B*18:01 | HLA-A*02:03 | HLA-A*69:01 [15] | HLA-B*51:01 | HLA-A*02:19 | HLA-B*27:03 | HLA-A*26:01 [16] | HLA-A*02:11 | HLA-A*02:16 [10]; [24] | HLA-B*46:01 | HLA-A*68:02 | HLA-A*02:01 [11]; [24]
0.0403 µM: HLA-B*57:01

LIPDGDGEV
0.0017 µM: HLA-A*02:50; [25]
≥ 20 µM: HLA-B*15:01 [2]; [25] | HLA-A*03:01 [3]; [25] | HLA-A*69:01 [4]; [25] | HLA-A*01:01; [25] | HLA-B*58:01 [5]; [25] | HLA-A*31:01; [25] | HLA-B*08:01 [7]; [25] | HLA-A*26:01 [8]; [25] | HLA-B*07:02; [25] | HLA-A*02:01 [9]; [25] | HLA-B*27:05; [25] | HLA-B*40:01; [25]

MSDWGHITV
0.0098 µM: HLA-A*02:50; [26]
≤ 0.001 µM: HLA-A*69:01 [4]; [27] | HLA-C*05:01; [26]
0.276 µM: HLA-A*02:01 [9]; [27]
0.056 µM: HLA-A*02:12 [17]
0.029 µM: HLA-A*02:16 [18]

QLKYKYPAL
0.0679 µM: HLA-B*08:01 [1]; source organism: Influenza A virus (A/Tokyo/1566/98(H3N2))

SYGNANVSF
0.264 µM: HLA-B*35:01 [6]; [28]
≥ 5 µM: HLA-A*11:01; [28]
1.14 µM: HLA-B*15:01 [2]; [28]
≥ 20 µM: HLA-A*03:01 [3]; [28] | HLA-A*69:01 [4]; [28] | HLA-B*58:01 [5]; [28] | HLA-A*31:01; [28] | HLA-B*08:01 [7]; [28] | HLA-A*26:01 [8]; [28] | HLA-B*07:02; [28] | HLA-A*02:01 [9]; [28] | HLA-B*27:05; [28] | HLA-B*44:02; [28] | HLA-B*40:01; [28]
1.81 µM: HLA-A*01:01; [28]

VNGVKGIQF
1 µM: HLA-B*35:01 [6]; [27]
≥ 20 µM: HLA-B*15:01 [2]; [27] | HLA-A*03:01 [3]; [27] | HLA-A*69:01 [4]; [27] | HLA-A*01:01; [27] | HLA-B*58:01 [5]; [27] | HLA-A*31:01; [27] | HLA-A*11:01; [27] | HLA-B*08:01 [7]; [27] | HLA-A*24:03; [27] | HLA-A*30:01; [27] | HLA-A*26:01 [8]; [27] | HLA-A*02:01 [9]; [27] | HLA-B*27:05; [27] | HLA-B*44:02; [27] | HLA-B*40:01; [27]

YALATQVEF
3.72 µM: HLA-B*08:01 [1]; [21]
2.65 µM: HLA-C*05:01; [21]
≤ 0.0001 µM: HLA-B*35:01 [20]
0.0045 µM: HLA-B*58:01 [19]
≤ 0.001 µM: HLA-C*03:03
0.0413 µM: HLA-B*15:01 [12]; [21]
